B1: PD1-0069 (antibody, V domains shown)
VH: QVQLQQSGPELVRPGVSVKISCKGSGYTFTDYAMHWVKQSHARTLEWIGVISTYSGDTNYNQKFKDKATMTVDKSSSTAYLELARMTSEDSAIYYCARLGITTGFAYWGQGTLVTVSA
VL: DIVLTQSPASLAVSLGQRATISCRASKGVSTSSYSFMHWYQQKPRQPPKLLIKYASYLESGVPARFSGSGSGTDFTLNIHPVEEEDAATYYCHHSREFPWTFGGGTKLEIK
B2: PD1-0078 (antibody, V domains shown)
VH: QVQLQQPGAELVKPGASVKMSCKASGYTFTSTWMHWVKQRPGQGLEWIGAIDPSDSYTTYNQKFKGKATLTVDTSSTTAYMQLSSLTSEDSAVYYCTRSPFDYWGQGTTLTVSS
VL: DIVMTQSHKFMSTSVGDRVSITCKASQDVSTAVAWYQQKPGQSPKLLIYSASYRYTGVPDRFTGSGSGTDFTFAISSVQAEDLAVYYCQQHYSHPFTFGSGTKLEIK
B3: PD1-0073 (antibody, V domains shown)
VH: EVKLVESGGGLVKPGGSLKLSCAASGFTFSNYGMSWIRQTPEKGLEWVATISGGGRDTYYPDSVKGRFTISRDNVKNNLYLQMSSLRSEDTAFYYCASYYYGIDYWGQGTSVTVSS
VL: DIVMTQPHKFMSTSVGDRVRITCKASQDVTTAVAWYQQKPGQSPKLLIYWASTRHTGVPDRFTGSGSGTEFTLTISSVQAEDLALYYCQQHYSIPWTFGGGTKLEIK
B4: PD1-0050 (antibody, V domains shown)
VH: DVQLQESGPGLVKPSQSLSLTCTVTGYSITSDYAWNWIRQFPGNKLEWMGYITYTGRTSYNPSLKSRISITRDTSKNQFFLQLNSVTTEDTATYYCAREMDYYGSTLDYWGQGTTLTVSS
VL: KIVLTQSPASLAVSLRQRATISCRASESVDRYGNSFIHWYQQKPGQPPKVLIYRASNLESGFPARFSGSGSRTDFTLTIDPVEADDAATYYCQQNNEDPYTFGSGTKLEIK
B5: anti-PD1(0314) huIgG1 PGLALA (control M) (antibody, V domains shown)
VH: EVQLLESGGGLVQPGGSLRLSCAASGFSFSSYTMSWVRQAPGKGLEWVATISGGGRDIYYPDSVKGRFTISRDNSKNTLYLQMNSLRAEDTAVYYCVLLTGRVYFALDSWGQGTLVTVSS
VL: EIVLTQSPATLSLSPGERATLSCRASESVDTSDNSFIHWYQQKPGQSPRLLIYRSSTLESGIPARFSGSGSGTDFTLTISSLEPEDFAVYYCQQNYDVPWTFGQGTKVEIKR
notes: monospecific IgG1 of clone 0314; also called PD1 targeted human IgG control M

Columns and labels:
[1] = target: T1, full-length human PD1 on cells (human, UniProt Q15116 25-288); test: cell-based or functional assay
[2] = target: T1, full-length human PD1 on cells; test: flow cytometry on CHO-K1-huPD1 clone 5 cells
Excerpt: For binding assays on PD1 and 4-1BB expressing tumor cells two genetically modified tumor cells were used. The generation of human expressing HeLa-hu4-1BB-NFκB-luc clone 26 cells will be described in Example 5.3.1. For human PD1 expressing tumor cell lines, CHO-k1 cells were transfected with human PD1 as following: parental adherent CHO-K1 cell line (ATCC CCL-61) was stably transfected with plasmid 15311_hPD1-fl_pUC_Neo coding for full-length human PD1 and selection with G418 (Neomycin resistance marker on plasmid).
0.1×10⁶ tumor cells resuspended in DPBS (Gibco by Life Technologies, Cat. No. 14190 326) were added to each well of a round-bottom suspension cell 96-well plates (greiner bio-one, cellstar, Cat. No. 650185). Cells were washed once with 200 μL DPBS. Cells were resuspended in 100 μL/well of 4° C. cold DPBS buffer containing 1:5000 diluted Fixable Viability Dye eFluor 660 (eBioscience, Cat. No. 65-0864-18) and plates were incubated for 30 minutes at 4° C. […] Data was analyzed using FlowJo V10 (FlowJo, LLC) and GraphPad Prism 6.04 (GraphPad Software, Inc).
(§1) Gates were set on living tumor cells and geo means of fluorescence intensity of PE-conjugated AffiniPure anti-human IgG IgG Fcγ-fragment-specific goat F(ab′)2 fragment were blotted against the titrated concentration of PD1-targeted 4-1BB split trimeric ligand Fc fusion antigen binding molecules or their controls.

[3] = target: T2, human 4-1BB on cells (human, UniProt Q07011 24-255); test: flow cytometry on HeLa-huCD137-NFkB-luc clone 26 cells; PE-conjugated anti-human IgG secondary; geo mean
T2 construct: whole, on cells; also called HeLa-hu4-1BB-NFkB-luc clone 26; HeLa-huCD137-NFkB-luc clone 26 cells
Description: Cells were washed once with 200 μL DPBS. Cells were resuspended in 100 μL/well of 4° C. cold DPBS buffer containing 1:5000 diluted Fixable Viability Dye eFluor 660 (eBioscience, Cat. No. 65-0864-18) and plates were incubated for 30 minutes at 4° C. Cells were washed once with 200 μL/well 4° C. cold DPBS buffer and resuspended in 50 μL/well of 4° C. cold FACS buffer (DPBS supplied with 2% FBS, 5 mM EDTA pH8 (Amresco, Cat. No. E177) and 7.5 mM Sodium azide (Sigma-Aldrich S2002)) containing PD1-targeted 4-1BB split trimeric ligand Fc fusion antigen binding molecules at a series of concentrations, followed by incubation for 1 hour at 4° C. After extensive washing, cells were further stained with 50 μL/well of 4° C. cold FACS buffer containing 5 μg/mL PE-conjugated AffiniPure anti-human IgG F(ab′)2-fragment-specific goat F(ab′)2 fragment (Jackson ImmunoResearch, Cat. No. 109 116 098) for 30 minutes at 4° C. Cells were washed twice with 200 μL/well 4° C. […] Data was analyzed using FlowJo V10 (FlowJo, LLC) and GraphPad Prism 6.04 (GraphPad Software, Inc).
as §1

[4] = target: T1, full-length human PD1 on cells; test: flow cytometry, activated human PBMCs, γδ T cells
Description: (§2) Cells were further incubated for 2 days at 37° C. and 5% CO₂
(§3) For the binding assay 0.1×10⁶ fresh or activated PBMCs were added to each well of a round-bottom suspension cell 96-well plates (greiner bio-one, cellstar, Cat. No. 650185). Plates were centrifuged 5 minutes with 350×g and at 4° C. and supernatant were discarded. Afterwards cells were stained in 100 μL/well DPBS containing 1:5000 diluted fixable viability dye eF660 (eBioscience, Cat.-No. 65-0864-18) for 30 minutes at 4° C. in the dark. Cells were washed once with 200 μL ice cold cold DPBS buffer. Next, 50 μL/well of 4° C. cold FACS buffer (DPBS supplied with 2% FBS, 5 mM EDTA pH8 (Amresco, Cat. No. E177) and 7.5 mM Sodium azide (Sigma-Aldrich, Cat.-No. S2002)) containing titrated concentrations of construct 7.1, construct 7.3, construct 7.5 and construct 7.6 and as controls control B, control C, control D, control M and control F were added and cells were incubated for 60 minutes at 4° C., washed three times with 200 μL/well 4° C. FACS buffer. […] Data was analyzed using FlowJo V10 (FlowJo, LLC) and GraphPad Prism 6.04 (GraphPad Software, Inc)

[5] = target: T1, full-length human PD1 on cells; test: flow cytometry, activated human PBMCs, CD8 T cells
Description: as §2, §3

[6] = target: T1, full-length human PD1 on cells; test: flow cytometry, activated human PBMCs, CD19 cells
Description: as §2, §3

[7] = target: T1, full-length human PD1 on cells; test: flow cytometry, freshly isolated resting human PBMCs (table title), γδ T cells
Description: as §3

[8] = target: T1, full-length human PD1 on cells; test: flow cytometry, freshly isolated resting human PBMCs (table title), CD4 T cells
Description: as §3

[9] = target: T1, full-length human PD1 on cells; test: flow cytometry, activated human PBMCs, CD4 T cells
Description: as §2, §3

T1 sequence (Q15116 25-288 limits assumed): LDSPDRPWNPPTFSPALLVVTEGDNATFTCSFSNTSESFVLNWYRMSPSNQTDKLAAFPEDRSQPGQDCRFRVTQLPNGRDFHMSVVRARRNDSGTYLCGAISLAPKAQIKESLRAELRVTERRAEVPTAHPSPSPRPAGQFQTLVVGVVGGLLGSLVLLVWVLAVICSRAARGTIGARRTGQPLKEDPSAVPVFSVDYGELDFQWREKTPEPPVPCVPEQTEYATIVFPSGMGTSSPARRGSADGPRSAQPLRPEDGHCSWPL
T2 sequence (Q07011 24-255): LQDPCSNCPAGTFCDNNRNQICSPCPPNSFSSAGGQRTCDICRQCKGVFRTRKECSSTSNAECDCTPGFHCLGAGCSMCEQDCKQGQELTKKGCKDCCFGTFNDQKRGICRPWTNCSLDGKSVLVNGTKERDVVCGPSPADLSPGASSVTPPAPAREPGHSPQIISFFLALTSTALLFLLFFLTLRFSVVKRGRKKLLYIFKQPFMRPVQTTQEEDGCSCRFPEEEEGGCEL

Row | Binder | Percentage of IFN gamma secretion in MLR against rec hu IL-2 (=100%), dilution 1:12 [1] [%] | Percentage of IFN gamma secretion in MLR against rec hu IL-2 (=100%), dilution 1:120 [1] [%] | Percentage of IFN gamma secretion in MLR against rec hu IL-2 (=100%), dilution 1:1200 [1] [%] | EC50 [2] [nM] | binding result [3] | EC50 [4] [nM] | EC50 [5] [nM] | EC50 [6] [nM] | EC50 [7] [nM] | EC50 [8] [nM] | EC50 [9] [nM]
1 | B1 | 76 | 71 | 55 | – | – | – | – | – | – | – | –
2 | B2 | 99 | 72 | 21 | – | – | – | – | – | – | – | –
3 | B3 | 103 | 63 | 38 | – | – | – | – | – | – | – | –
4 | B4 | 136 | 96 | 33 | – | – | – | – | – | – | – | –
5 | B5 | – | – | – | 1.59 | no binding (tested: ~300 nM) | 0.71 | 0.3 | 0.33 | 0.03 | 0.03 | 0.33

Reference: US20230123178A1 (Hoffmann-La Roche, published 2023)
